Laboratory results reported in patent US7977317B2, “Compositions and methods for modulating blood-brain barrier transport” (Raptor Pharmaceutical Inc., priority 2001, dated 2011).
Entries after “also recorded” stand apart in the source; their conditions may differ.

B1: p97: recombinant human melanotransferrin (p97), provided by Synapse Technologies (protein, UniProt P08582 20-709, looked up)
Melanotransferrin: GMEVRWCATSDPEQHKCGNMSEAFREAGIQPSLLCVRGTSADHCVQLIAAQEADAITLDGGAIYEAGKEHGLKPVVGEVYDQEVGTSYYAVAVVRRSSHVTIDTLKGVKSCHTGINRTVGWNVPVGYLVESGRLSVMGCDVLKAVSDYFGGSCVPGAGETSYSESLCRLCRGDSSGEGVCDKSPLERYYDYSGAFRCLAEGAGDVAFVKHSTVLENTDGKTLPSWGQALLSQDFELLCRDGSRADVTEWRQCHLARVPAHAVVVRADTDGGLIFRLLNEGQRLFSHEGSSFQMFSSEAYGQKDLLFKDSTSELVPIATQTYEAWLGHEYLHAMKGLLCDPNRLPPYLRWCVLSTPEIQKCGDMAVAFRRQRLKPEIQCVSAKSPQHCMERIQAEQVDAVTLSGEDIYTAGKTYGLVPAAGEHYAPEDSSNSYYVVAVVRRDSSHAFTLDELRGKRSCHAGFGSPAGWDVPVGALIQRGFIRPKDCDVLTAVSEFFNASCVPVNNPKNYPSSLCALCVGDEQGRNKCVGNSQERYYGYRGAFRCLVENAGDVAFVRHTTVFDNTNGHNSEPWAAELRSEDYELLCPNGARAEVSQFAACNLAQIPPHAVMVRPDTNIFTVYGLLDKAQDLFGDDHNKNGFKMFDSSNYHGQDLLFKDATVRAVPVGEKTTYRGWLGLDYVAALEGMSSQQC
B2: lactoferrin: lactoferrin (Lf), LRP ligand used as competitor (protein, UniProt P02788 20-710, looked up)
Lactotransferrin: GRRRSVQWCAVSQPEATKCFQWQRNMRKVRGPPVSCIKRDSPIQCIQAIAENRADAVTLDGGFIYEAGLAPYKLRPVAAEVYGTERQPRTHYYAVAVVKKGGSFQLNELQGLKSCHTGLRRTAGWNVPIGTLRPFLNWTGPPEPIEAAVARFFSASCVPGADKGQFPNLCRLCAGTGENKCAFSSQEPYFSYSGAFKCLRDGAGDVAFIRESTVFEDLSDEAERDEYELLCPDNTRKPVDKFKDCHLARVPSHAVVARSVNGKEDAIWNLLRQAQEKFGKDKSPKFQLFGSPSGQKDLLFKDSAIGFSRVPPRIDSGLYLGSGYFTAIQNLRKSEEEVAARRARVVWCAVGEQELRKCNQWSGLSEGSVTCSSASTTEDCIALVLKGEADAMSLDGGYVYTAGKCGLVPVLAENYKSQQSSDPDPNCVDRPVEGYLAVAVVRRSDTSLTWNSVKGKKSCHTAVDRTAGWNIPMGLLFNQTGSCKFDEYFSQSCAPGSDPRSNLCALCIGDEQGENKCVPNSNERYYGYTGAFRCLAENAGDVAFVKDVTVLQNTDGNNNEAWAKDLKLADFALLCLDGKRKPVTEARSCHLAMAPNHAVVSRMDKVERLKQVLLHQQAKFGRNGSDCPDKFCLFQSETKNLLFNDNTECLARLHGKTTYEKYLGPQYVAGITNLKKCSTSPLLEACEFLRK

Experiments:
[1] = system: BBCEC monolayers; assay: Accumulation of ligands in BBCEC monolayers; assay type: cell-based, bovine; conditions: for Accumulation in the cell monolayer of heat denatured ligand compared to normal ligand: ligand boiled 30 mins, 37° C. (FIG. 7)
Method: (§1) FIG. 7 illustrates the results of experiments where the ligands p97, Lf and Tf were heated or not heated prior to the binding study. In all cases, binding experiments were conducted in the transwell apparatus as described previously, with the exception that binding was conducted at either 4° C. or at 37° C. For the 37° C. trial, a separate experiment was conducted where the ligand was boiled for 30 mins then rapidly cooled prior to administration on the transwell plates.
(§2) FIG. 13 illustrates the transcytosis and accumulation of p97 and transferrin in BBCEC monolayers. FIG. 13a, Transcytosis experiments were performed at 37° C. (solid bars) or 4° C. (white bars). [^125I]-p97 or bovine [^125I]-holo-transferrin (1 mg/ml) was added to the upper side of the cell-covered filter. At the end of the experiment, radiolabelled proteins were measured in the lower chamber of each well by TCA precipitation (n=4). Controls were also performed at 37° C. with denatured [^125I]-p97 or bovine [^125I]-holo-transferrin boiled for 30 min (grey bars) (n=2); FIG. 13b, Biospecific interaction analysis was performed with native or boiled p97 for the indicated times. MAb L235 (5 μg) was immobilized on a sensor chip (SM5) using standard procedures incorporating NHS, EDC and ethanolamine. Native and boiled p97 (5 to 30 min) diluted at 1 mg/ml in Ringer/Hepes was cooled and injected into the BIAcore. The surface plasmon resonance response obtained for native p97 and boiled p97 was plotted (in relative units (RU)) as a function of time; FIG. 13c, The accumulation of both proteins into BBEC cells were also measured. Briefly, after incubation at 37° C. (solid bars) or 4° C. (white bars) with either [^125I]-protein, cells were washed four times with cold PBS. Accumulation of both denatured proteins (grey bars) was also measured at 37° C. Filters were then removed, and the radioactivity associated with the cells was quantified (n=3).
as §1, with “In” for “FIG. 7 illustrates the results of experiments where the ligands p97, Lf and Tf were heated or not heated prior to the binding study. In”

[2] = system: BBCEC monolayers; assay: Transcytosis across BBCEC monolayers (in vitro BBB model); assay type: cell-based, bovine; conditions: for Effect on transcytosis of 125I-p97: competitor 5 micromolar (FIG. 10a, 10b)
Text: FIG. 10 assesses the ability of several agents to interfere with p97 transyctosis. FIG. 10a, transcytosis of I125-P97 was compared in the presence of cold p97 (5 micromolar), Lf (5 micromolar), and Tf (5 micromolar). […] FIG. 10c, RAP, a known poly-peptide inhibitor of the LDL-Receptor family was applied to the cells (25 micrograms/ml).
FIG. 11 examines the accumulation and transcytosis of p97. FIG. 11a, of [^125I]-p97, [^125I]-BSA and [^125I]-holo-transferrin one hour after i.v. injection. The radioactivity in brain was compared between the three compounds. (n=3); FIG. 11b, Accumulation of p97 and transferrin into the mouse brain parenchyma. In situ brain perfusion was performed with human [^125I]-p97 or [^125I]-holo-transferrin at a final concentration of 10 nM via a catheter inserted in the right common carotid artery. The volume of distribution (VD) of [^125I]-proteins were obtained in the whole brain homogenate (white bars), in brain capillaries (solid bars) and in brain parenchyma (hatched bars) after isolation of the right hemisphere and capillary depletion. Results were obtained for p97 (n=10) and for holo-transferrin (n=6); FIG. 11c, Transcytosis of p97 across BBCEC monolayers. Transcytosis experiments were performed 37° C. (open circles) and 4° C. (closed circles) with BBCEC monolayers. [^125I]-p97 (1 mg/ml) was added to the upper side of the cell-covered filter. One representative experiment is shown (n=4); FIG. 11d, Preferential transport of p97 across the BBCEC monolayers. Apical-to-basal and basal-to-apical transport of [^125I]-p97 (25 nM) was measured for 2 hrs at 37° C. At the end of the experiment, [^125I]-p97 was assessed in the lower or upper chambers of each well by TCA precipitation (n=4).
as §2
FIG. 14 illustrates the stability of p97 and integrity of the BBCEC monolayers following p97 transcytosis. FIG. 14a, Transcytosis experiments were performed at 37° C. and 4° C. by adding p97 (1 mg/ml) to the upper compartment. At the end of the experiment, 50 μl from each lower chamber was used for SDS-polyacrylamide gel electrophoresis. After electrophoresis, the gels were stained with Coomassie Blue. A standard curve was also made with known amounts of recombinant p97 (0-2 μg); FIG. 14b. The gels were dried and scanned to quantify the amount of intact p97 that crossed the BBCEC monolayers at 37° C. and 4° C. (n=3); FIG. 14c, Effect of p97 on sucrose permeability of BBCE cell monolayers co-cultured with astrocytes. […]

Molecule | Accumulation in the cell monolayer of heat denatured ligand compared to normal ligand [1] | Accumulation in BBCE cells ([1]; native proteins (FIG. 13c)) [μg/cm2] | [125I]-p97 transport apical-to-basolateral relative to basolateral-to-apical ([2]; 25 nM, after 2 hrs at 37° C. (FIG. 11d)) | Temperature dependence of p97 transcytosis ([2]; 37° C. versus 4° C., apical to basolateral) | Transport from the apical to the basolateral surface of ECs compared with transferrin ([2]; 37° C., 1 mg/ml (FIG. 13a)) | Saturability of p97 transcytosis ([2]; FIG. 9) | Degradation of p97 after transcytosis ([2]; SDS-PAGE of lower compartment, 30-120 min (FIG. 14a)) | Effect of heat-denaturation on passage through BBCEC monolayers ([2]; boiled 30 min, 37° C. (FIG. 13a)) | Effect on transcytosis of 125I-p97 [2] | Membrane bound p97 transcytosed ([2]; in 10 minutes (FIG. 20)) [%] | Total amount of intact p97 after transendothelial transcytosis ([2]; p97 1 mg/ml, gel densitometry (FIG. 14b)) [μg/cm^2] | Accumulation of Lf compared with p97 at the end of the experiment ([1]; FIG. 7)
B1 | significantly lower accumulation | 5.7 | about 3 fold | significantly higher at 37 °C than at 4 °C; also recorded: dramatic reduction | much higher than for transferrin | saturable phenomenon | no apparent degradation | reduced the passage | successfully reduced | 80 | 35 | –
B2 | significantly lower accumulation | – | – | – | – | – | – | – | only the cold p97 successfully reduced | – | – | almost twice as high
